Laboratory results: patent US8691225B2, “Antibodies against the ectodomain of ErbB3 and uses thereof” (Merrimack Pharmaceuticals, Inc., priority 2007, dated 2014)

Experiments:
[1] = test system: HB-EGF binding to AdrR cells; test: biotinylated HB-EGF binding to AdrR cells by FACS; type: cell-based, human; conditions: 12.5 μM antibodies, 200 nM HB-EGF
Method: After 30 minutes, 50 μl of 400 nM biotinylated HB-EGF is added to the cells and incubated for another 30 minutes on ice. This yields a final concentration of 12.5 μM antibodies and 200 nM HB-EGF. Cells are then washed twice with 500 μl BD stain buffer and incubated with 100 μl of a 1:200 dilution of streptavidin-PE (PE=phycoerythrin) (Invitrogen) in BD stain buffer for 45 minutes. Finally, cells are washed twice, resuspended in 300 μl of BD stain buffer and analyzed in a FACSCALIBUR flow cytometer. As a positive control, 1×10^5 AdrR cells are incubated with 200 nM HB-EGF for 30 minutes on ice, washed twice and incubated with a 1:200 dilution of streptavidin-PE for 45 minutes. To assess background staining from the streptavidin-PE conjugate, cells are incubated with 100 μl of a 1:200 dilution of streptavidin-PE only for 45 minutes.

AdrR spheroids = test: spheroid growth assay; type: cell-based, human; conditions: 8 uM
Method: (§1) Subconfluent cells are trypsinized, counted, and resuspended in filtered medium. The cell concentration is adjusted to 100,000 cells/ml, and one 20 ul drop (containing 2000 cells) is added to each ring on the underside of the lid of a 96-well plate. The lids with these hanging droplets are then placed back on the original 96-well plate, which contained 100 ul of PBS in each well to maintain moisture. Four days after initial plating, the hanging droplets containing the spheroids are replated into new 96-well plates. This replating involves transferring the lid containing the hanging droplets to a fresh 1% agarose/RPMI-coated 96-well plate that contains 150 ul of medium per well. The plate and lid are then centrifuged together at 500 rpm for 1 minute to transfer the spheroid-containing drops from the lids to the wells. Plates are then further incubated at 37° C. in a humidified CO2 incubator. Spheroids are photographed in an inverted phase contrast microscope. A micrometer scale is also photographed at the same magnification to determine spheroid size. The diameter of the spheroids is determined using METAMORPH image analysis software (MDS Analytical Technologies).
(§2) The diameters of the spheroids are measured using light microscopy (10× objective) at day 1 and day 13.

DU145 spheroids = test: spheroid growth assay; type: cell-based, human; conditions: DU145, 8 uM, 3.4 nM HRG
Method: as §1, §2

[2] = test system: ErbB3 phosphorylation in OVCAR 5; test: ErbB3 phosphorylation ELISA in ovarian tumor cell line; type: cell-based, human; conditions: IgG2 isotype
Method: (§3) All ELISA reagents for the total and phospho-ErbB3 ELISAs are purchased from R&D Systems as DUOSET kits. 96-well NUNC MAXISORB plates are coated with 50 uL of an antibody and incubated overnight at room temperature. Next morning, plates are washed 3 times with […] in the BIOTEK plate washer with Dulbecco's phosphate buffered saline without calcium or magnesium (PBS) with added Tween detergent (PBST) (0.05% Tween-20). […] The plates are washed 3 times with […] in the BIOTEK plate washer with PBST (0.05% Tween-20). 50 μL of cell lysates and standards diluted in 50% Lysis buffer and 1% BSA are used in duplicates for further processing. Samples are incubated for 2 hrs at 4° C. on a plate shaker and washed as before. About 50 μl of a detection antibody diluted in 2% BSA, PBST is added and incubated for about 1 hr at room temperature. For phosphor-ErbB3, the detection antibody is directly conjugated to horseradish peroxidase (HRP) and incubated for 2 hrs at room temperature. The plate is washed as before. About 50 μl of Streptavidin-HRP is added and incubate for 30 min at room temperature (except for pErbB3). The plates are washed as before. About 50 μL of SUPERSIGNAL ELISA Pico (Thermo Scientific) substrate is added and the plate is read using a FUSION plate reader. The data are analyzed using EXCEL. […]

[3] = test system: ErbB3 phosphorylation in OVCAR 8; test: as above; type: cell-based, human; conditions: IgG2 isotype
Method: as §3

[4] = test system: phosphorylated ErbB3 (pErbB3) in AdrR ovarian xenografts; test: ErbB3 phosphorylation in AdrR ovarian xenografts in vivo; set-up: species or system mouse; conditions: pErbB3 in ng/mg of total protein
Method: The samples are pulverized substantially as described in Example 5 supra, with respect to FIG. 8. The BCA assay is performed substantially as set forth in the Materials and Methods section supra, and the ELISA assay is performed substantially as described in Example 5 supra with respect to FIG. 8.

BSA = BSA (Bos taurus, UniProt P02769); test: binding specificity ELISA; set-up: species or system bovine; conditions: IgG2 isotype of Ab #6
Method: 96-well NUNC MAXISORB plates are coated by overnight incubation at room temperature with 50 μl/well of 5 μg/ml of individual proteins. The proteins are recombinant human EGFR ectodomain, BSA, recombinant human ErbB3 ectodomain and TGF-α. The next morning, plates are washed 3 times with […] of PBST (0.05% Tween-20) in the BIOTEK plate washer. The wells are blocked for 1 hr at room temperature with 2% BSA in PBS and washed again as before. […] All samples are run in duplicate and incubated for 2 hrs at 4° C. on a plate shaker. The plates are washed again as before. 50 μl of human IgG-Fc detection antibody (HRP conjugated, Bethyl Laboratories, Inc; 1:75000 dilution in 2% BSA, PBST) is added and the plates are incubated for 1 hr at room temperature. The plates are washed again as before. 50 μL of SUPERSIGNAL ELISA Pico substrate is added and the plate is read on the FUSION plate reader (Packard/Perkin Elmer). The data is analyzed using the EXCEL program. Duplicate samples are averaged and the error bars represent the standard deviation between the two replicates.

renal (ACHN) xenograft = test: xenograft tumor growth in nude mice; type: in vivo, mouse; conditions: 600 ug Q3d versus 300 ug

Sequence of BSA (P02769 25-607): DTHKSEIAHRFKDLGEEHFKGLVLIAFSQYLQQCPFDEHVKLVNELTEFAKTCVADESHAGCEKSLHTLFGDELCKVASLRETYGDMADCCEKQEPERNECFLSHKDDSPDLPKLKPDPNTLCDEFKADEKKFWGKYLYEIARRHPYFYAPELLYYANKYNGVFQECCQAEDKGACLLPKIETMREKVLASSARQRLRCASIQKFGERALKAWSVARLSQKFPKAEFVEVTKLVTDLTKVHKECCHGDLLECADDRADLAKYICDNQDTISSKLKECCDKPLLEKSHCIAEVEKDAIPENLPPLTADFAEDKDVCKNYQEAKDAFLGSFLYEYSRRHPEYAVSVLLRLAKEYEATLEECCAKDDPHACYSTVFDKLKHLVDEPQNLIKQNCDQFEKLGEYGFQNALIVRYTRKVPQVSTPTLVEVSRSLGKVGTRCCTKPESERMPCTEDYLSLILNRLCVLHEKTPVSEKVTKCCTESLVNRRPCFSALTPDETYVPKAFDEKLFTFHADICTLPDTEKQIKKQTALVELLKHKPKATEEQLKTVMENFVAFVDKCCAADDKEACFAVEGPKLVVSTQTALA

B1: Ab #6: human anti-ErbB3 antibody from Fab-phage library, CDRs SEQ ID NOs:7-12; used as IgG1 and IgG2 isotypes; in phase I trials as MM-121 (antibody, V domains shown)
VH: EVQLLESGGGLVQPGGSLRLSCAASGFTFSHYVMAWVRQAPGKGLEWVSSISSSGGWTLYADSVKGRFTISRDNSKNTLYLQMNSLRAEDTAVYYCTRGLKMATIFDYWGQGTLVTVSS
VL: QSALTQPASVSGSPGQSITISCTGTSSDVGSYNVVSWYQQHPGKAPKLIIYEVSQRPSGVSNRFSGSKSGNTASLTISGLQTEDEADYYCCSYAGSSIFVIFGGGTKVTVL
inhibition of HB-EGF binding to AdrR cells [1]: does not inhibit this binding
inhibition of HRG-induced spheroid growth (AdrR spheroids; 3.4 nM HRG): inhibits the HRG effect
inhibition of spheroid growth (AdrR spheroids; day 1 to day 13): inhibits spheroid growth in AdrR cells
inhibition of HRG-induced spheroid growth (DU145 spheroids): inhibits HRG induced spheroid growth
inhibition of ErbB3 phosphorylation [2]: inhibited ErbB3 phosphorylation
inhibition of ErbB3 phosphorylation [3]: inhibited ErbB3 phosphorylation
inhibition of ErbB3 phosphorylation in vivo [4]: significantly inhibited ErbB3 phosphorylation
binding in ELISA (BSA): did not show any appreciable binding
inhibition of tumor growth (renal (ACHN) xenograft): further elevated
